Data from patent publication US10344077.

T1: Jo-1 (UniProt P12081)
T1 sequence (looked up): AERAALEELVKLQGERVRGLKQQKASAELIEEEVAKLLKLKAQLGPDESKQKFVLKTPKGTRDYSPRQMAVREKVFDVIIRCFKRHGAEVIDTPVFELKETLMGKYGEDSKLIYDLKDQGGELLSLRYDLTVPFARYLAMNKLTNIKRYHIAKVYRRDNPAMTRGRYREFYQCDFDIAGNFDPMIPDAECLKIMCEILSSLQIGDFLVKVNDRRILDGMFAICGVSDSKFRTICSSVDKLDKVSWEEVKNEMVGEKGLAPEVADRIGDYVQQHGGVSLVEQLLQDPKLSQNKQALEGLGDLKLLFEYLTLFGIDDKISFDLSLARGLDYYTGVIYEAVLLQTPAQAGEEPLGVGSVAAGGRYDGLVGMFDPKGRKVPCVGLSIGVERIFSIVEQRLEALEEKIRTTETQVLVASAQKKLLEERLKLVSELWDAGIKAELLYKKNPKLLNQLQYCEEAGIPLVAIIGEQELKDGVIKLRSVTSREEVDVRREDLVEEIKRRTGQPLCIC

T2: Centromere B (UniProt P07199)
T2 sequence (looked up): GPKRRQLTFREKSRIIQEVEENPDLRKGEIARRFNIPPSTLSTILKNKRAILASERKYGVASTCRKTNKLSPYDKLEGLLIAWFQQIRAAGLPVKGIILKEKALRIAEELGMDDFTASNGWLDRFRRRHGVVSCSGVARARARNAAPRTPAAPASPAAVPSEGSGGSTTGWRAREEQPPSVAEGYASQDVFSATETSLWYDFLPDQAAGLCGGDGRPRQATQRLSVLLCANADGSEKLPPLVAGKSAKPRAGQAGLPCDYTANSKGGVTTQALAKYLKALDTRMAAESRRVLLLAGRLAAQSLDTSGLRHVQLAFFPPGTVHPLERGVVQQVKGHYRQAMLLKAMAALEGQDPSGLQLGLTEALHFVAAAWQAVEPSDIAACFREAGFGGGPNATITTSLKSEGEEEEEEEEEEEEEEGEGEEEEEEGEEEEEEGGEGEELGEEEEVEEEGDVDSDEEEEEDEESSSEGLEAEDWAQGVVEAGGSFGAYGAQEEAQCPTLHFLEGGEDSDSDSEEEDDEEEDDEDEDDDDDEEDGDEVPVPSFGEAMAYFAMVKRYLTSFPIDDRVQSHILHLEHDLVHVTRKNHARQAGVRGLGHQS

B1: CH236_4A/293i (antibody, from a related filing, V domains shown)
VH: QVQLVQSGAAVKRPGASVTISCRASGYTFTTYYIHWVRQAPGQRLELMGMIDPSRGRTDYAQKFQGRVTMSRDTSTSTLYMELRSLRPDDTALYYCVRNVGTEGSLLHYDYWGQGTLVTVSS
VL: EIVLTQSPATLSVSPGERVTLSCRASQSVRNNLAWYRQKRGQAPRLLIYGASTRATGIPARFSGSGSGTEFTLTISSMQSEDFAVYYCQQYNNWWTFGQGTKVEIK
B2: CH239_4A/293i (antibody, from a related filing, V domains shown)
VH: QVQLVQSGAEVRKPGASVTVSCKASGYTFNNFYVHWVRQAPGQGLECMGWIDPSVGRINYAQKFQGRVTMTRDRSTSTVYMGLSSLRSEDTAIYYCVRDVGTEGSLLHFDHWGQGTLVIVSA
VL: EIVLTQSPATLSVSPGERATLSCRATQSVRSNVAWYQQKPGQAPRLLIYSASTRATGIPARFSGSGSGTEFTLTIASMQSEDFAVYYCLQYDDWWTFGQGTKVEIK

Experiments:
[1] = target: Scl-70 (UniProt P11387); test: AtheNA, Ab 12.5 ug/ml
Sequence of Scl-70 (P11387 2-765 limits assumed): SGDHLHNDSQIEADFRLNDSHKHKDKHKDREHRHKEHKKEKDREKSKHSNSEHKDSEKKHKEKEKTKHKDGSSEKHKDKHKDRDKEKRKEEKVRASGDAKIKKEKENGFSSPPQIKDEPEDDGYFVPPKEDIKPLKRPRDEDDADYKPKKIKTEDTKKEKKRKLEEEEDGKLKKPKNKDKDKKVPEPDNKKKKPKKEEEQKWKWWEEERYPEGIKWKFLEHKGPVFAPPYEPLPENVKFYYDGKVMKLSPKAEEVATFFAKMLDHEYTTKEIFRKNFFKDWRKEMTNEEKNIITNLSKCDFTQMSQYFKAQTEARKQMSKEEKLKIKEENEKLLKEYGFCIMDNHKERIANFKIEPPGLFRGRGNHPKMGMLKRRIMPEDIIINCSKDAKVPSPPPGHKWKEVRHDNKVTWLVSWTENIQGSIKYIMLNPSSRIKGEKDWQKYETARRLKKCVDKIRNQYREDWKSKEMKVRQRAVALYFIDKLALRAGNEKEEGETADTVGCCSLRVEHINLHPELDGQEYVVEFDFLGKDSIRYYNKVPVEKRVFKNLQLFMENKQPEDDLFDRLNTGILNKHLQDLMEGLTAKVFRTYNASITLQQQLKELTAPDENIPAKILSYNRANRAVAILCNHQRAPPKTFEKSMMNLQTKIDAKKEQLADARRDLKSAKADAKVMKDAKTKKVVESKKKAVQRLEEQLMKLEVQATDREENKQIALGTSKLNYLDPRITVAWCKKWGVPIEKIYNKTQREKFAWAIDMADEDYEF

[2] = target: Histones; test: AtheNA, Ab 12.5 ug/ml
[3] = target: T1, Jo-1; test: AtheNA, Ab 12.5 ug/ml
[4] = target: T2, Centromere B; test: AtheNA, Ab 12.5 ug/ml
[5] = target: SSA; test: AtheNA, Ab 12.5 ug/ml
[6] = target: RNP (ribonucleoprotein); test: AtheNA, Ab 12.5 ug/ml
[7] = target: Sm (Smith antigen); test: AtheNA, Ab 12.5 ug/ml
[8] = substrate: T3, SSB (UniProt P05455); test: AtheNA, Ab 25 ug/ml
T3 sequence (looked up): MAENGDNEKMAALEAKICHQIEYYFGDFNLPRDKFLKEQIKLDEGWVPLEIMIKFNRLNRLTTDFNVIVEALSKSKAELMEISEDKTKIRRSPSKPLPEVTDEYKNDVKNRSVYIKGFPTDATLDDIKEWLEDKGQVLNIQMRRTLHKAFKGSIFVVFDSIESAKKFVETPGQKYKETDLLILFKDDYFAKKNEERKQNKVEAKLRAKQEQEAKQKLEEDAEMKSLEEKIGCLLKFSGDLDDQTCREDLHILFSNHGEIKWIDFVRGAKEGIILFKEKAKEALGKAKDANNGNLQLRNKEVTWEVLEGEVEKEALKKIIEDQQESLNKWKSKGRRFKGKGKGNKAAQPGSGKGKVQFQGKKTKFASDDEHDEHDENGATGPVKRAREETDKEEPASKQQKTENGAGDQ

[9] = substrate: T3, ; test: AtheNA, Ab 6.25 ug/ml
[10] = substrate: T3, ; test: AtheNA, Ab 50 ug/ml
[11] = target: Histones; test: AtheNA, Ab 50 ug/ml
[12] = target: T1, Jo-1; test: AtheNA, Ab 50 ug/ml
[13] = target: T2, Centromere B; test: AtheNA, Ab 50 ug/ml
[14] = target: SSA; test: AtheNA, Ab 50 ug/ml
[15] = target: Sm (Smith antigen); test: AtheNA, Ab 50 ug/ml
[16] = target: Scl-70 (UniProt P11387); test: AtheNA, Ab 25 ug/ml
[17] = target: Histones; test: AtheNA, Ab 25 ug/ml
[18] = target: T1, Jo-1; test: AtheNA, Ab 25 ug/ml
[19] = target: T2, Centromere B; test: AtheNA, Ab 25 ug/ml
[20] = target: SSA; test: AtheNA, Ab 25 ug/ml
[21] = target: RNP (ribonucleoprotein); test: AtheNA, Ab 25 ug/ml
[22] = target: Sm (Smith antigen); test: AtheNA, Ab 25 ug/ml
[23] = substrate: T3, ; test: AtheNA, Ab 12.5 ug/ml
[24] = target: Scl-70 (UniProt P11387); test: AtheNA, Ab 6.25 ug/ml
[25] = target: Histones; test: AtheNA, Ab 6.25 ug/ml
[26] = target: T1, Jo-1; test: AtheNA, Ab 6.25 ug/ml
[27] = target: T2, Centromere B; test: AtheNA, Ab 6.25 ug/ml
[28] = target: SSA; test: AtheNA, Ab 6.25 ug/ml
[29] = target: RNP (ribonucleoprotein); test: AtheNA, Ab 6.25 ug/ml
[30] = target: Sm (Smith antigen); test: AtheNA, Ab 6.25 ug/ml

Binder	Athena reading (relative luminescence units) [1]	Athena reading (relative luminescence units) [2]	Athena reading (relative luminescence units) [3]	Athena reading (relative luminescence units) [4]	Athena reading (relative luminescence units) [5]	Athena reading (relative luminescence units) [6]	Athena reading (relative luminescence units) [7]	Athena reading (relative luminescence units) [8]	Athena reading (relative luminescence units) [9]	Athena reading (relative luminescence units) [11]	Athena reading (relative luminescence units) [13]	Athena reading (relative luminescence units) [14]	Athena reading (relative luminescence units) [15]	Athena reading (relative luminescence units) [17]	Athena reading (relative luminescence units) [18]	Athena reading (relative luminescence units) [19]	Athena reading (relative luminescence units) [20]	Athena reading (relative luminescence units) [21]	Athena reading (relative luminescence units) [22]	Athena reading (relative luminescence units) [23]	other results
B1	50	234	19	233	185	78	258	175	15	138	84	177	128	193	72	129	224	69	165	63	Athena reading (relative luminescence units) [10]: 207; Athena reading (relative luminescence units) [12]: 145; Athena reading (relative luminescence units) [16]: 62; Athena reading (relative luminescence units) [24]: 31; Athena reading (relative luminescence units) [25]: 154; Athena reading (relative luminescence units) [26]: 7; Athena reading (relative luminescence units) [27]: 208; Athena reading (relative luminescence units) [28]: 44; Athena reading (relative luminescence units) [29]: 40; Athena reading (relative luminescence units) [30]: 184
B2	48	263	8	216	277	85	277	8	5	228	173	289	250	253	11	199	306	96	237	6	Athena reading (relative luminescence units) [24]: 49; Athena reading (relative luminescence units) [25]: 266; Athena reading (relative luminescence units) [26]: 8; Athena reading (relative luminescence units) [27]: 260; Athena reading (relative luminescence units) [28]: 178; Athena reading (relative luminescence units) [29]: 78; Athena reading (relative luminescence units) [30]: 285
